Experimental findings from the supplement of paper PMC10567573 are described below.

B1: FLOT1 (parent)
chain: QMAKKAEAFQLYQEAAQLDMLLEK
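Also: lentivirally expressed fusions sorted by FACS into six bins by GFP to DsRed ratio, PSI derived from sequencing read proportions per bin multiplied by bin number.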

In this data set the parent is B1. Nature of the data set: protein stability index of a GFP-peptide fusion (GPS, HEK-293T) (PSI 1-6); higher = more stable. Conditions: c terminus: a fixed tail appended.
Turning to QMAKKAEAFQLYQEMAQLDMLLEK [A15M], the protein stability index was determined as 1.24.
As to QMAKKAEAFQLYQERAQLDMLLEK [A15R], the protein stability index is 2.92.
For the variant QMAKKAEAFQLYQEVAQLDMLLEK [A15V], the protein stability index was determined as 2.33.
Then QMAKKAEAFQLYQENAQLDMLLEK [A15N], with 2.32; and QMAKKAEAFQLYQEEAQLDMLLEK [A15E], with 4.04; and QMAKKAEAFQLYQESAQLDMLLEK [A15S], with 2.49.
The value for QMAKKAEAFQLYQEYAQLDMLLEK [A15Y] was 2.21; that for QMAKKAEAFQLYQEQAQLDMLLEK [A15Q] was 1.44.
Then QMAKKAEAFQLYQEHAQLDMLLEK [A15H], with 2.2; and QMAKKAEAMQLYQEAAQLDMLLEK [F9M], with 1.72.
In the case of QMAKKAEAWQLYQEAAQLDMLLEK [F9W], the protein stability index was determined as 1.86.
Then QMAKKAEANQLYQEAAQLDMLLEK [F9N], with 1.82; and QMAKKAEAFQLYQEAAQLDMLLTK [E23T], with 1.51.
The value for QMAKKAEAFQLYQEAAQLDMLLCK [E23C] was 2.27; that for QMAKKAEAFQLYQEAAQLDMLLVK [E23V] was 1.98; that for QMAKKAEAFQLYQEAAQLDMLLNK [E23N] was 2.35.
Then QMAKKAEAFQLYQEAAQLDMLLYK [E23Y], with 1.81; and QMAKKAEAFQLYQEAAQLDMLLHK [E23H], with 2.15.
Regarding QMAKKAEAFQLYQEAAQLDMLLFK [E23F], the protein stability index was 1.72.
Then QMAKKAEAFQLYQEAAQLDMLLLK [E23L], with 2.21.
For the variant QMAKKAEAFQLYQEAAQLDMLLSK [E23S], the protein stability index was determined as 2.53.
Then QMAKKAEAFQLYQEAAQLDMLLGK [E23G], with 3.26.
Then QMAKKAEAFQLYQEAAQLDMLLRK [E23R], with 1.39; and QMAKKAEAFQLYQEAAQLDMSLEK [L21S], with 3.46; and QMAKKAEAFQLYQEAAQLDMALEK [L21A], with 2.09.
The value for QMAKKAEAFQLYQEAAQLDMQLEK [L21Q] was 1.75.
Take QMAKKAEAFQLYQEAAQLDMGLEK [L21G]: the protein stability index amounted to 4.02.
As for QMAKKAEAFQLYQEAAQLDMKLEK [L21K], the protein stability index worked out at 2.19.
Then QMAKKAEAFQLYQEAAQLDMYLEK [L21Y], with 2.04; and QMAKKAEAFQLYQEAAQLDMVLEK [L21V], with 2.35; and QMAKKAEAFQLYQEAAQLDMPLEK [L21P], with 4.51.
The value for QQAKKAEAFQLYQEAAQLDMLLEK [M2Q] was 2.01; that for QLAKKAEAFQLYQEAAQLDMLLEK [M2L] was 1.84.
The value for QCAKKAEAFQLYQEAAQLDMLLEK [M2C] was 1.61; that for QKAKKAEAFQLYQEAAQLDMLLEK [M2K] was 2.4; that for QYAKKAEAFQLYQEAAQLDMLLEK [M2Y] was 2.1.
As to QGAKKAEAFQLYQEAAQLDMLLEK [M2G], the protein stability index was 2.78.
The value for QEAKKAEAFQLYQEAAQLDMLLEK [M2E] was 2.07; that for QMAKKAEAFQLYQEAAQLDKLLEK [M20K] was 2.55; that for QMAKKAEAFQLYQEAAQLDYLLEK [M20Y] was 2.08.
Turning to QMAKKAEAFQLYQEAAQLDNLLEK [M20N], the protein stability index worked out at 2.47.
As to QMAKKAEAFQLYQEAAQLDELLEK [M20E], the protein stability index turned out to be 3.76.
With QMAKKAEAFQLYQEAAQLDVLLEK [M20V], the protein stability index was 2.38.
For the variant QMAKKAEAFQLYQEAAQLDDLLEK [M20D], the protein stability index stood at 4.03.
Turning to QMAKKAEAFQLYQEAAQLDFLLEK [M20F], the protein stability index amounted to 2.25.
Then QMAKKAEAFQLYQEAAQLDHLLEK [M20H], with 2.94; and QMAKKAEAFQLYQEAAQLDILLEK [M20I], with 3.46.
The value for QMAKKAEAFQLYQEAAQLDCLLEK [M20C] was 1.97; that for QMAKKAEAFQLLQEAAQLDMLLEK [Y12L] was 2.03; that for QMAKKAEAFQLGQEAAQLDMLLEK [Y12G] was 4.56.
For the variant QMAKKAEAFQLCQEAAQLDMLLEK [Y12C], the protein stability index was determined as 3.06.
The value for QMAKKAEAFQLDQEAAQLDMLLEK [Y12D] was 4.96; that for QMAKKAEAFQLNQEAAQLDMLLEK [Y12N] was 4.47; that for QMAKKAEAFQLPQEAAQLDMLLEK [Y12P] was 5.08.
Then QMAKKAEAFQLHQEAAQLDMLLEK [Y12H], with 2.98; and QMAFKAEAFQLYQEAAQLDMLLEK [K4F], with 1.68.
Then QMAIKAEAFQLYQEAAQLDMLLEK [K4I], with 2.27; and QMACKAEAFQLYQEAAQLDMLLEK [K4C], with 1.86; and QMAHKAEAFQLYQEAAQLDMLLEK [K4H], with 2.12.
For QMAAKAEAFQLYQEAAQLDMLLEK [K4A], the protein stability index was 1.43.
Then QMAPKAEAFQLYQEAAQLDMLLEK [K4P], with 2.3; and QMAYKAEAFQLYQEAAQLDMLLEK [K4Y], with 2.25; and QMAMKAEAFQLYQEAAQLDMLLEK [K4M], with 1.55.
The value for QMAQKAEAFQLYQEAAQLDMLLEK [K4Q] was 1.51; that for QMWKKAEAFQLYQEAAQLDMLLEK [A3W] was 1.21; that for QMYKKAEAFQLYQEAAQLDMLLEK [A3Y] was 2.83.
Then QMIKKAEAFQLYQEAAQLDMLLEK [A3I], with 1.88; and QMFKKAEAFQLYQEAAQLDMLLEK [A3F], with 1.16.
Turning to QMCKKAEAFQLYQEAAQLDMLLEK [A3C], the protein stability index was determined as 2.81.
The value for QMHKKAEAFQLYQEAAQLDMLLEK [A3H] was 1.93; that for QMLKKAEAFQLYQEAAQLDMLLEK [A3L] was 2.63; that for QMAKKAEAFQLYQEAKQLDMLLEK [A16K] was 3.59.
The value for QMAKKAEAFQLYQEAIQLDMLLEK [A16I] was 1.44; that for QMAKKAEAFQLYQEAWQLDMLLEK [A16W] was 1.35.
Then QMAKKAEAFQLYQEAGQLDMLLEK [A16G], with 4.14; and QMAKKAEAFQLYQEADQLDMLLEK [A16D], with 3.24; and QMAKKAEAFQLYQEAYQLDMLLEK [A16Y], with 1.93.
Turning to QMAKKAEAFQLYQEATQLDMLLEK [A16T], the protein stability index came to 1.85.
As for QMAKTAEAFQLYQEAAQLDMLLEK [K5T], the protein stability index was 2.01.
As to QMAKFAEAFQLYQEAAQLDMLLEK [K5F], the protein stability index was 2.8.
Then QMAKCAEAFQLYQEAAQLDMLLEK [K5C], with 2.68; and QMAKRAEAFQLYQEAAQLDMLLEK [K5R], with 2.3; and QMAKLAEAFQLYQEAAQLDMLLEK [K5L], with 3.38.
The value for QMAKGAEAFQLYQEAAQLDMLLEK [K5G] was 1.92; that for QMAKKAEAFQLYPEAAQLDMLLEK [Q13P] was 3.87; that for QMAKKAEAFQLYSEAAQLDMLLEK [Q13S] was 1.8.
On to QMAKKAEAFQLYDEAAQLDMLLEK [Q13D], for which the protein stability index was 4.08.
Then QMAKKAEAFQLYLEAAQLDMLLEK [Q13L], with 3.2.
Then QMAKKAEAFQLYGEAAQLDMLLEK [Q13G], with 3.57.
Then QMAKKAEAFQLYCEAAQLDMLLEK [Q13C], with 2.46; and QMAKKAEAFQLYIEAAQLDMLLEK [Q13I], with 2.49.
Take QMAKKAEAFQLYQEAARLDMLLEK [Q17R]: the protein stability index worked out at 2.46.
The value for QMAKKAEAFQLYQEAAALDMLLEK [Q17A] was 1.47; that for QMAKKAEAFQLYQEAAILDMLLEK [Q17I] was 1.72.
